Source: patent EP2014310A2 (Dyax Corporation, dated 2009)
Bridge positions count the residues as written; N and C are the ends. Side chains are listed from the residue outwards. Ends that are not written are not given here. * marks the point of attachment. Biotin = O=C1N[C@H]2[C@H](CS[C@H]2CCCCC(=O)*)N1; AEEA = NCCOCCOCC(=O)O

Tests used:
[1] = target: T1, KDR/VEGF complex (KDR-Fc mixed or saturated with VEGF) (human, UniProt P35968 20-764; P15692 27-191); assay: fluorescence anisotropy, fluorescein-labeled peptide, KDR-Fc with two fold excess VEGF
T1 construct: anisotropy: two fold molar excess of VEGF mixed with KDR-Fc; Biacore: KDR-Fc chip saturated with VEGF; also called KDR:VEGF165 complex

[2] = target: T1, KDR/VEGF complex (KDR-Fc mixed or …); assay: Biacore, KDR-Fc chip saturated with VEGF, unlabeled peptide
[3] = target: VEGF165 (Peprotech #100-20) (UniProt P15692-4 27-191); assay: fluorescence anisotropy, fluorescein-labeled peptide
[4] = target: T2, human KDR-Fc fusion (R&D Systems #357-KD-050) (human, UniProt P35968 20-764); assay: fluorescence anisotropy, fluorescein-labeled peptide, KDR-Fc alone
T2 construct: bought

[5] = target: KDR on transiently KDR-transfected 293H cells (human) (UniProt P35968); assay: neutravidin-HRP complexes, KDR minus mock 293H cells
[6] = target: T2, human KDR-Fc fusion (R&D Systems …); assay: phage binding screen on KDR-Fc; class legend in paragraph 246
[7] = target: T2, human KDR-Fc fusion (R&D Systems …); assay: fluorescence anisotropy, fluorescein-labeled peptide
[8] = target: T2, human KDR-Fc fusion (R&D Systems …); assay: SPR
[9] = target: KDR on transiently KDR-transfected 293H cells (human) (UniProt P35968); assay: competition with 300 pM 125I-VEGF on KDR-transfected 293H cells, peptide 0.3 µM
[10] = target: T2, human KDR-Fc fusion (R&D Systems …); assay: Biacore, KDR-Fc on CM5 chip, unlabeled peptide
[11] = target: KDR on transiently KDR-transfected 293H cells (human) (UniProt P35968); assay: competition with 300 pM 125I-VEGF on KDR-transfected 293H cells, peptide 30 µM
[12] = target: KDR on human umbilical vein endothelial cells (HUVECs) (human, UniProt P35968 20-1356); assay: cell-based or functional assay
Chain of KDR on human umbilical vein endothelial cells (HUVECs) (P35968 20-1356): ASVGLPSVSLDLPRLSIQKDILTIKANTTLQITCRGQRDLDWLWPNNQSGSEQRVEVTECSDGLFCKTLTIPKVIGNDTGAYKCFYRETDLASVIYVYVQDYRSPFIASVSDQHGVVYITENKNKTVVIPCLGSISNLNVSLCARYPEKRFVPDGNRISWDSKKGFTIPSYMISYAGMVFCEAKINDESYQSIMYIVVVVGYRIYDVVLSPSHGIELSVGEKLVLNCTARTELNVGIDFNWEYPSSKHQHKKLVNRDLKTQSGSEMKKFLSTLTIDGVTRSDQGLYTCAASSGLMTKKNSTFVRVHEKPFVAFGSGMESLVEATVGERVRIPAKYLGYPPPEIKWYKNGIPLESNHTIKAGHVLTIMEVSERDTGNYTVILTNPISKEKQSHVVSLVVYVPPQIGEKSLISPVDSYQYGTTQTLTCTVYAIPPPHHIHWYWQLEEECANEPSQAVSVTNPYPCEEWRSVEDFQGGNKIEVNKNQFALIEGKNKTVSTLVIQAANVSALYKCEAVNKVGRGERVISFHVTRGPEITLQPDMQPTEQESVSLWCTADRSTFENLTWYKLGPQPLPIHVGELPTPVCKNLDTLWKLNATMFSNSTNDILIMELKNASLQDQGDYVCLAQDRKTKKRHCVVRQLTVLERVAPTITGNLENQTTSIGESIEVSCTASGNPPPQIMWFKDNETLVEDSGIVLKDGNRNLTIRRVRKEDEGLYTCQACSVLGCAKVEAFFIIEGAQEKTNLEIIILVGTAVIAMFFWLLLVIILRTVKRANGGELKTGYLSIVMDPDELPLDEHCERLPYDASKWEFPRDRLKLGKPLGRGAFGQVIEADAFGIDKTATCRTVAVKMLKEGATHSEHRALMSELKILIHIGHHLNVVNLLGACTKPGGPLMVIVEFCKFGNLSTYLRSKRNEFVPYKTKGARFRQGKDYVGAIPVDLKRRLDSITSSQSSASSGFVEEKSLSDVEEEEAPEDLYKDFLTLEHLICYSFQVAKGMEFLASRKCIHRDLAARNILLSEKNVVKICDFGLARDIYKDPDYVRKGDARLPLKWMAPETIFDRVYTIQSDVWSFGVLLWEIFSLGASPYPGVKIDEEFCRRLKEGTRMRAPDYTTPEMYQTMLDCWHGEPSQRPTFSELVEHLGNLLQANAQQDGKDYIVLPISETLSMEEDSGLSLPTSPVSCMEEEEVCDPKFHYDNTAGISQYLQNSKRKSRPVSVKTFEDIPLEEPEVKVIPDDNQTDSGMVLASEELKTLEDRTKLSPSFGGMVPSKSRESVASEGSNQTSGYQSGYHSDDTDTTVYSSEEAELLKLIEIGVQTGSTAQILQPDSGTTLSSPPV

T1 sequence (P35968 20-764, chain 1 of 2): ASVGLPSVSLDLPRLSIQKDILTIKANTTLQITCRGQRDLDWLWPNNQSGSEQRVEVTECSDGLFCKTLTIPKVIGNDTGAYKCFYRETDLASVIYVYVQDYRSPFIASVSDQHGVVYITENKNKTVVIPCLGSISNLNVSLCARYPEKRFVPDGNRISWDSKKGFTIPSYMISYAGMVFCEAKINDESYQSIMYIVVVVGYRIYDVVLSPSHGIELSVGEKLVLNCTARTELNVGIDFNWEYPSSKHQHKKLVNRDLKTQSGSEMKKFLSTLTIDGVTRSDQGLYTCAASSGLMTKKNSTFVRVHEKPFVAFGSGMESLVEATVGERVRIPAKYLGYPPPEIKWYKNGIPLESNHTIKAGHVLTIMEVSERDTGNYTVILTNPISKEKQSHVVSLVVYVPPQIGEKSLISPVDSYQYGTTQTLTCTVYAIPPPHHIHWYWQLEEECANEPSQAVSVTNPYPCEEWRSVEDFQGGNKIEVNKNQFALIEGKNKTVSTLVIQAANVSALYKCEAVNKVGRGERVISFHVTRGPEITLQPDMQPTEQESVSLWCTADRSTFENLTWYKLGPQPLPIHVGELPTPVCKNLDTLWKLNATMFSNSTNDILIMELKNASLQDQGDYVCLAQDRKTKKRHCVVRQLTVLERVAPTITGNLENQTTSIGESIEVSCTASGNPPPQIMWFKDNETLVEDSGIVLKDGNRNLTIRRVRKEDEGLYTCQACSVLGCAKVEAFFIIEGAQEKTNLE
T1 sequence (P15692 other isoform, or with tags, fused parts or gaps, chain 2 of 2): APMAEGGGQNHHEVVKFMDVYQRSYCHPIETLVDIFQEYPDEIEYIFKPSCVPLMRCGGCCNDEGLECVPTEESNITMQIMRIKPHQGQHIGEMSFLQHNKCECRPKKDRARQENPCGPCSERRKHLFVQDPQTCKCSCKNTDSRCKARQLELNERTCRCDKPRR
T2 sequence (P35968 20-764): as the sequence (P35968 20-764, chain 1 of 2) above
Chain of VEGF165 (Peprotech #100-20) (P15692 other isoform, or with tags, fused parts or gaps limits assumed): as the sequence (P15692 other isoform, or with tags, fused parts or gaps, chain 2 of 2) above
Chain of KDR on transiently KDR-transfected 293H cells (human) (P35968 20-1356): as the sequence (P35968 20-1356) above

B1: SEQ ID NO:321 (peptide)
peptide: Ac-AGPGPCKGYMPHQCWYMGTGGGK-NH2
modifications: disulfide 6-14 (inferred); not fully specified; also: C-terminal Lys fluorescein-labeled in some assay forms
With B1 the Kd [1] was 60 nM, the Kd [2] was 80 nM and the binding result [3] was “no binding”. It also gave a Kd [4] of 400 nM.

Ac-AQDWYYDEILSMADQLRHAFLSGGGGGK([AEEA-AEEA-Biotin])-NH2 (peptide, part only; not given: control peptide and neutravidin-HRP, not shown: large carriers, also: neutravidin-HRP complex with biotinylated control peptide (dimer)) [neutravidin-HRP complex of SEQ ID NO:356 and control peptide, dimer] showed a ratio of specific binding to that of monomer (Dimer) [5] of 2.3.

DHHCYLHNGQWICYPF [phage isolate DHHCYLHNGQWICYPF]: binds [6].

NSHCYIWDGMWLCFPD [phage isolate NSHCYIWDGMWLCFPD]: binds [6].

B2: SEQ ID NO:323 (peptide)
peptide: Ac-AGYGPCKNMPPWMCWHEGTGGGK-NH2
modifications: disulfide 6-14 (inferred); not fully specified; also: C-terminal Lys fluorescein-labeled in some assay forms
For B2, the Kd [1] was 180 nM, the Kd [2] was 420 nM and the binding result [3] was “no binding”. The Kd [4] was 1800 nM.

B3: SEQ ID NO:325 (peptide)
peptide: Ac-AQAPAWTFGTNWRSIQRVDSLTGGGGGK-NH2
modifications: not fully specified; also: C-terminal Lys fluorescein-labeled in some assay forms
B3 was tested, and the Kd [1] was 840 nM, the binding result [3] was “no binding” and the binding result [7] was “no binding”.

B4: tail-to-tail heterodimer comprising the polypeptides of SEQ ID NO:305 and SEQ ID NO:306 (peptide)
peptide 1: AQEPEGYAYWEVITLYHEEDGDGGK
peptide 2: AQAFPRFGGDDYWIQQYLRYTDGGK
modifications: not fully specified (bridges); also: tail-to-tail linker not given here
Binder B4 has a Kd [8] of 11 nM.

Ac-AQDWYYDEILSMADQLRHAFLSGGGGGK([AEEA-AEEA-Biotin])-NH2 (peptide, part only; not given: control peptide and neutravidin-HRP, not shown: large carriers, also: neutravidin-HRP complex with biotinylated control peptide (trimer)) [neutravidin-HRP complex of SEQ ID NO:356 and control peptide, trimer] gave a ratio of specific binding to that of monomer (Trimer) [5] of 5.7.

Work on Ac-GDSRVCWEDSWGGEVCFRYDPGGGK-NH2 (not fully specified; cysteine pairing not given here) [SEQ ID NO:294] yielded a % inhibition of 125I-labeled VEGF binding [9] of 52.3%, a Kd [10] of 120 nM and a % inhibition of 125I-labeled VEGF binding [11] of 96.3%. The “VEGF-induced KDR phosphorylation in HUVECs” value [12] was ≥ 50 % inhibition at 10 µM.

B5: SEQ ID NO:322 (peptide)
peptide: Ac-AGYGPCAEMSPWLCWYPGTGGGK-NH2
modifications: disulfide 6-14 (inferred); not fully specified; also: C-terminal Lys fluorescein-labeled in some assay forms
B5 was tested, and the Kd [1] was 130 nM, the binding result [3] was “no binding” and the Kd [4] was 3700 nM.

B6: SEQ ID NO:326 (peptide)
peptide: Ac-AQEGWFRNPQEIMGFGDSWDKPGGGGGK-NH2
modifications: not fully specified; also: C-terminal Lys fluorescein-labeled in some assay forms
For B6, the Kd [1] was 1400 nM, the binding result [3] was “no binding” and the binding result [7] was “no binding”.
